Experimental data published in the DeepSol protein solubility set.

assay: soluble on expression in E. coli; label from the status in PepcDB or PDB records

Row | Sequence | soluble on expression in E. coli
1 | MAMIGLVGKPNVGKSTMFNALTEKPAEIGNYPFTTIQPNKGIAYITSPCPCKELGVKCNPRNSKCIDGIRHIPVEVIDVAGLVPGAHEGRGMGNKFLDDLRQADAFILVVDASGKTDAEGNPTENYDPVEDVKFLLNEIDMWIYSILTKNWDKLARRAQQEKNIVKALKDQLSGLNIDEDDIKMAIRDMDESPIKWTEEDLLNLAKKLRKISKPMIIAANKADHPDAEKNIERLKKEFKDYIVIPTSAEIELALKRAEKAGIIKRKENDFEIIDESKVNEQMRRAFDYIKDFLKKYGGTGVQECINKAYFDLLDMIVVYPVEDENKFSDKQGNVLPDAFLVKKGSTARDLAYKVHTELGEKFIYAIDAKKKIRVGADYELKHNDIIKIVSAAK | soluble
2 | MAMIHEMILDGKVVRYRVVEKPVKYVTLRVLEDGTILVVTPLEQIVREVLIKKKDWILSKISIVEEAKELSRKGFPLFGKFYSLEMGEKFEINREELRITFPGIEFLRNWIKREIKRKAREIAKDFGISPKRIYVKAMRTKWGSATWRKSITLNFSSAALPEELFHYLVIHELAHLIELNHSKRFWSLVASYHPDYKKKRRELKKWWFIVHSNETWRAILQWPEGLEHHHHHH | soluble
3 | MAMNLRKNQAPLYIKVHEIDNTAIIVNDGGLPKGTVFSCGLVLEEDVPQGHKVALTDLNQGDEIVRYGEVIGFADETIKRGSWIREALVRMPAP | not soluble
4 | MAMPTIRHVRAFIVRGGGADYHDQPGGHWIDDHISTPMARYPEYRQSRQSFGINVLGTLVVEIEASDGTVGFAVTTGGEIGAFIVEKHLARFLEGQLVTDIEKMWDQMYFSTLYYGRKGVVLNTISGVDLALWDLLAKVRKEPVYQLLGGPVRDELVFYATGARPDLAKEMGFIGGKLPLQHGPAEGDAGLRQNLDKLAEMRSRVGDDFWLMYDCWMSLDVPYATRLAQAAHEYGLKWIEECLPPDDYWGYAELRRNVPRGMMVSTGEHEATRWGFRMLLEMQCCDLIQPDVGWCGGITELIKISALADAHNVMVVPHGSSVYSYHFVVTRHNSPFAEFLMMAPKADEVVPMFTPLLLDEPVPVNGRMKVPDAPGFGVRLNPECALVRPYAR | soluble
5 | MANEKQYPMTKEGKEKLEQELEYLKTVKRKEVVERIKIARGFGDLSENSEYDAAKDEQAFVESRIQMLENMIRNAVIIEEDKENPDVVSLGKSVTFIELPDGEEETYTIVGSAEADPFEGKISNDSPIAKSLLGRRVGDEVTVQTPGGEMLVKIVAVK | soluble
6 | MANHVSLILPPLSLYIHIPWCVQKCPYCDFNSHTQKGTIPEAEYIQHLLADLSQDLVTYKTAIANRKIHSIFIGGGTPSLFSAEAIAYLLAEIKQRIAFAPKIEITLEANPGTAEAERFICYTEAGINRISMGIQSFEEEKLRKLGRIHDAHEAKQAVYFAKNALISPSRTVGLHSFNLDLMHGLPNQTLEQALADLNTAISLNPPHFSWYQLTIEPNTMFYYRQPTLPDDDELWAIFEQGHQLLTMAGYQQYETSAYAKQGFQCQHNLNYWRFGDYLAIGCGAHGKISYPSGEIYRFSKTKHPKGYMRGDYRDSQQSIQLDDRPFEFFMNRFRLLEPTPKQEFECYTGLDCERVRPTIDWALNKHYISETSTTWQVTQKGKLFLNELLAGFLTLEHHHHHH | not soluble
7 | MANLEKKRVVVTGLGAITPIGNTLQDYWQGLMEGRNGIGPITRFDASDQACRFGGEVKDFDATQFLDRKEAKRMDRFCHFAVCASQQAINDAKLVINELNADEIGVLIGTGIGGLKVLEDQQTILLDKGPSRCSPFMIPMMIANMASGLTAINLGAKGPNNCTVTACAAGSNAIGDAFRLVQNGYAKAMICGGTEAAITPLSYAGFASARALSFRNDDPLHASRPFDKDRDGFVMGEGSGILILEELESALARGAKIYGEMVGYAMTCDAYHITAPVPDGRGATRAIAWALKDSGLKPEMVSYINAHGTSTPANDVTETRAIKQALGNHAYNIAVSSTKSMTGHLLGGSGGIEAVATVMAIAEDKVPPTINLENPDPECDLDYVPGQSRALIVDVALSNSFGFGGHNVTLAFKKYQ | soluble
8 | MAPFSPASSDVLVIGGGPSGTALSAELAARGLDVQQLAPHPPRPFPATYGAWLGDLPTWARGCAEQVWTDVRAYTGPQPTSLGQPYALLDNAALLRTLRGLADWTWVEGAALHAERSGAGWTVYGAGGERWQTRLVVDASGHGALVSPVRFPGGAALQTAYGVVARFRRPPVTPGSMVWMDYRTPAPELKRGEATFLYAMHLGGDRYFVEETSLIARPAPTRAELRRRLLARLSAQGTPPHATESEEWVAFPMNAQAPAPGGVLAYGAAAGRVHPVSGFQVAGALSDAPGVATAIATALCQGKDAAAAGWAALWSPERRAAREVHLLGVGALLGLERAELPHFFGTFFGLPREQWARFLHPDTDAGTLARTMLRVFAQTGGRVRLPLARAALAQPAASGRALAAAAGLKILEHHHHHH | not soluble
9 | MAPGTAELEIDETLHLLRMVMQREFIHYLETLPGTKELFIDKCLLRPLDMIATSSDMKRHGVKRIMHFDLQKSPQVWNIEIDQRVFFLRPNVENARKIVEYVEESSENRSICVIWCNRQLEECDLAFESSGVIGHITQLSLNMCLLPLESDLFSLQHVESAQPDLFSVANMFVALQNLYGVIPTVYGLGSESKNLWNLVHALCSSNELRARPDQPISHLFLFDRQLDPVPVLLTGASYEGLLHEFFTIDCGKLAFPVDLRKQVQTGPLDFDWIEINPEEDKEAHQQNRGDTVKLDNCEDIFASIRNKHVTAALEFLHSKAKSIQKSIEKSSMIDDVADYRNFVEKDLRALKKDHKHCELHINACEMMMNKVKMEDYRTMFKLEHEMLLGTVTHEEYFDFVFERVPMRSCRDVVLSMMSLASLKLDGVPDDTYNEFVEMYLQKYGYEHMFELQNLRNSRVIYARRHIAHDRTISERARTWETLARKFRIVKGNEPMDMSNPSDMSYVFGARISPLLCKIVEDTIDHGWNQAEYERIIGKDKVLVEENTYIAADRRPDNRTRKAIMVFVNGGITYWEVAALRLLAIQKNFRILICTTHVIKKREYLEVRAKDASSVFGS | not soluble
10 | MAPRQLAAADLAVGQVVAQREIRLDAQAFAQFAALTGDAHPIHYDAGYVQRQGLRAPIAHGLLLVAISALGATPLSAQLHDAMVAMVGVEAVFMRPVYVDETVQCVYRVAQIEHVAKGRSKTTIAVSIHTTDAPPDAARQAHCVVHLTFLLKTHLQGLEHHHHHH | not soluble
11 | MAPSQPTQNAQTVSSVMTETPTYTSSSRSVESTAGTIAASEEATMTLLENSSGDPGSDSGGARYSLNSLKVSEQAAANAVLKAVLNDVSYQEFADSSYLEITGTPSADGTWGISFGGPSESASVEFSDGSISFSPVDMTVPATRLPQMGAFYETLTEEQLGMLETGLAVSTVDSSQQEMLLDLVSNSIGLADTETTATAISKIRATLSETYLFGTPDGLTLALSGPHVDFEVSHQGSTAKITYRDPSTDTLTAEDRVDTASVAAAPPEVVLEHHHHHH | soluble
12 | MAQALWTRNKSEITDEEYKEFYKHIAHDFNDPLTWSHNRVEGKQEYTSLLYIPSQAPWDMWNRDHKHGLKLYVQRVFIMDDAEQFMPNYLRFVRGLIDSSDLPLNVSREILQDSTVTRNLRNALTKRVLQMLEKLAKDDAEKYQTFWQQFGLVLKEGPAEDFANQEAIAKLLRFASTHTDSSAQTVSLEDYVSRMKEGQEKIYYITADSYAAAKSSPHLELLRKKGIEVLLLSDRIDEWMMNYLTEFDGKPFQSVSKVDESLEKLADGDLGTLVPRGSMAISDPNSSSVDKLAAALEHHHHHH | soluble
13 | MAQLYYRYGTMNSGKTIEILKVAYNYEEQGKGVVIMTSALDTRDGVGYVSSRIGMKRPALAIEETTDIFGYIRDLPEKPYCVLVDEAQFLKRHHVYDLARVVDELDIPVMAFGLKNDFRNELFEGSKYLLLLADKIDEIKTICQYCKKKATMVLRTQDGLPVYDGEQIQIGGNETYISVCRKHYFAPMITSNKEQNYDN | not soluble
14 | MAQVRKAHPKDLAAIARLSHQTLFLGREGPKVFPSETLWGALFVAPYLEAGCCNLVAEEEGRVVGYILGACADRPLALAFAKRLLWALPRLLLGRFGPPLPHLRYLLRLLRYPGPKAPKDRYPAHLHIAVDPEAQGHGVGKALLAAFLKCLREKGVPGVQLATTRANRAARGLYRAMGFRVYAKRASPFWAPYLGRPLIHEVWVRDLG | soluble
15 | MARAIWKGAISFGLVHIPVALNTAVRTERVDFDWLDKRSMEPVGYKRVNKVTGKEIDKDNIVKGVEFEKGRYVVISEEEIRKARPETTQTIDIFSFVEAGDIPLQHFDTPYYLTPDRRGGKVYALLRETLEKTGKVALATVVLHTRQHLALLRPLDHALVMITLRWPEEVRGLETLELDASVT | not soluble
16 | MARFSGKVALITGSSNGIGRAAAILFAQQGAKVTITGRNAERLKETRHEIKKSGIPAENILAIVADVITDEGQMRLINDTVRKFGHLDILVNNAGGALMDAQGRVGMDQDISVFDNTMQINMRSVVTLVQKAKEHLIKSKGEIINVSAMAAGHHGDPIATFYGMSKAALDQFTRSSAISLIQHGVRVNSVSPGFTKTGFGEAMGFPPIAMKKVISFYESHKECAPSGAIAQPGDIAQVILFLADRTMSSYIIGQSIIADGGSSLVMGMHAHDMLDILKA | not soluble
17 | MARIAGVEIPRNKRVDVALTYIYGIGKARAKEALEKTGINPATRVKDLTEAEVVRLREYVENTWKLEGELRAEVAANIKRLMDIGCYRGLRHRRGLPVRGQRTRTNARTRKGPRKTVAGKKKAPRK | soluble
18 | MARIRARGSIPDINAYTGSNVTLKIHKDPLGPYRRITWLHTKNQKILEYNYNSTKTIFESEFKGRVYLEENNGALHISNVRKEDKGTYYMRVLRETENELKITLEVFDPV | soluble
19 | MARKRIITPEKKELIRNLISEYNITSAKDLQEALKDLLGDTIQNMLEAELDEHLGYEKYESTEEAKSNYRNGYTSKTLKSSVGQVEIDIPRDRNAEFEPKIVPRYKRDISEIENKIIAMYARGMSTREINEQIQEIYGFEVSAEMVSKITDKILPEIEEWQKRPLGEVYPIVFIDAIHFSVKNDGIVGKKAIYIVLAIDIEGQKDVIGIYVGENESSKFWLSVLNDLKNRGVKDILILCADALSGIKDAINAAFPNTEYQRCIVHQIRNTLKYVSDKDRKEFARDLKRIYTAPNEKAGYDQMLEVSEKWEKKYPAAMKSWKSNWDVICPFFKYSEELRKIMYTTNTIESLNSSYRRINKSRTVFPGDQSLLKSIYLATVKITSKWTMRYKNWGLILGQLQIMFEGRI | not soluble
20 | MARLLEEHGFETKTNVIVQGNCVEQEIDVVAERDGERYMIECKFHNIPVYTGLKEAMYTYARFLDVEKHGFTQPWIFTNTKFSEEAKKYAGCVGIKLTGWSYPEKEGIEVLLESKGLYPITILRIDKEVLDELVRAGLVFCRDVVSAGEEKLREIGLSAKKAREVIAEAKKVIG | soluble
21 | MARMKFLCDTKRCIECNGCVTACKNENDDALEWGIQRRRVVTLNDGEPGENSISVACMHCTDAPCMAVCPADCFVHTEDGIVLHNKDLCIGCGYCLFACPFGAPQFPKQAAFGERGKMDKCTFCAGGPETEPGSEEERRKYGANRIAEGKLPMCASLCSTKALLAGDAEKISDIFRQRVVERGAKGAGWTNGEDLAYDATRS | not soluble
22 | MARPRKPLLSTDRIVETARALVDAEGLAAVSTRRLAAELGVSGPSLYNHFRTKDEILEAVADSVSAQVDLSMFEDGREWRTALHDWAVSYRTALRDHPNIVPVLAHGPGRRPAALHLADAVYGAMVRAGWPAAQATSIGALMRYFVMGSALGSFAGGFVDDAGAYDPADYPHLQQAHLLAEQQEKIDERAFETGLTALLDGLAQQYAQVAQGV | not soluble
23 | MARQKDTFYFEGFRRSADYACQAAKLLSEVMHDFNPGQLRERMDSMHAIEKSADEVRHDMMDELVTAFITPFDREDIDELGHVLDDVTDSIEGVLNRMYYDNVTDMRDDAVQMSDMVVRATESICELVNELPRFRHSKTLRELVFAINTIETDADHLFIESMRTLHTTCTDPLQVFAWHDVYRHLEQCSDDCERVANTIDSIVMKNSLEHHHHHH | soluble
